Test results from paper doi:10.1101/2021.01.30.428938.
“And” between values parts separate entries of the source, which are not always exact repeats. Identical values can stand only once.

How the values were obtained:
[1] = target: Theileria parva schizont antigen Tp2, full-length native, bacterially expressed with His-tag (Theileria parva (Muguga)); test: SEC-MALS
[2] = target: Theileria parva schizont antigen Tp2, full-length native, bacterially expressed with His-tag (Theileria parva (Muguga)); test: SEC

“Theileria parva schizont antigen Tp2, full-length native, bacterially expressed with His-tag (natural protein)” was tested, and the stoichiometry N [1] was 2 and the stoichiometry N [2] was 4 and 2.
